The source of these data is PMC10786891, “Massively parallel profiling of RNA-targeting CRISPR-Cas13d”.

The labels stand for the following.
T1: EsCas13d, nuclease-dead (Eubacterium siraeum, UniProt B0MS50, R295A;H300A;R849A;H854A)
T1 sequence: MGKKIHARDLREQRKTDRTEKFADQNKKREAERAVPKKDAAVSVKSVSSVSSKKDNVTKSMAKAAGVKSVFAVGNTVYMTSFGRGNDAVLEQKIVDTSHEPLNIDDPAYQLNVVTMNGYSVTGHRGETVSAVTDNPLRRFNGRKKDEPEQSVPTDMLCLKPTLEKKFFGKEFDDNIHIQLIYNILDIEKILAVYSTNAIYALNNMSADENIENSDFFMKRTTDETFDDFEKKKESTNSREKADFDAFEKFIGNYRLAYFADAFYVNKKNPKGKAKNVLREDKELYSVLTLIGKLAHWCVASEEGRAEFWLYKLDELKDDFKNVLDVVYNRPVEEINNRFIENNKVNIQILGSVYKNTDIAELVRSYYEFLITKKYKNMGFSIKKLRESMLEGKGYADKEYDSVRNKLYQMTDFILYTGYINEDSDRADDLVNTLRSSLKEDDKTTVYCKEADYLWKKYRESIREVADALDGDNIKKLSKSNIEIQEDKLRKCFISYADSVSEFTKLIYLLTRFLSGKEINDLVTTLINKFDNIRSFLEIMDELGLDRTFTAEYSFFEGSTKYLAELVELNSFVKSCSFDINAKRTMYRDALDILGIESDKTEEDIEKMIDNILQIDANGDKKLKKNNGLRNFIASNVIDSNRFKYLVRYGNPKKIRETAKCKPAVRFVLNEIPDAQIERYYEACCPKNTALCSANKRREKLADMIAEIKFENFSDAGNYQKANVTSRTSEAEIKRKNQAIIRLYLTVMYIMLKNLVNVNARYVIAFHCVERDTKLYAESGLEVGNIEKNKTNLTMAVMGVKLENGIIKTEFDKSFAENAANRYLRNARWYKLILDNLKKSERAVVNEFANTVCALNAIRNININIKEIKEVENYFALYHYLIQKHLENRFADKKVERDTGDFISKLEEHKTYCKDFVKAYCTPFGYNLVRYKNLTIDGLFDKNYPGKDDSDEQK

B1: target 1 MT 5'PFS GAC 3'PFS ACG (mixed)
RNA 1: CACCCGUGCAAAAAUGCAGGGGUCUAAAACUGAGCGGAUAACCUCUCUAUGG
RNA 2: GGGAAUGGAUCCACAUCUACGAAUUCGACCCAUAGAGAGGUUAUCCGCUCAACGAGAUCGGAAGAGCACACGU
B2: target 1 MT 5'PFS GUA 3'PFS ACG (mixed)
RNA 1: B1 RNA 1
RNA 2: B1 RNA 2 with A28U, C29A
B3: target 1 MT 5'PFS UCC 3'PFS UGC (mixed)
RNA 1: B1 RNA 1
RNA 2: B1 RNA 2 with G27U, A28C, A52U, C53G, G54C
B4: target 1 MT 5'PFS ACC 3'PFS UUG (mixed)
RNA 1: B1 RNA 1
RNA 2: B1 RNA 2 with G27A, A28C, A52U, C53U
B5: target 1 MT 5'PFS GUA 3'PFS ACA (mixed)
RNA 1: B1 RNA 1
RNA 2: B1 RNA 2 with A28U, C29A, G54A
B6: target 1 MT 5'PFS UCC 3'PFS AAA (mixed)
RNA 1: B1 RNA 1
RNA 2: B1 RNA 2 with G27U, A28C, C53A, G54A
B7: target 1 MT 5'PFS UGU 3'PFS CCG (mixed)
RNA 1: B1 RNA 1
RNA 2: B1 RNA 2 with G27U, A28G, C29U, A52C
B8: target 1 MT 5'PFS UAG 3'PFS UAA (mixed)
RNA 1: B1 RNA 1
RNA 2: B1 RNA 2 with G27U, C29G, A52U, C53A, G54A
B9: target 1 MT 5'PFS AAA 3'PFS UAG (mixed)
RNA 1: B1 RNA 1
RNA 2: B1 RNA 2 with G27A, C29A, A52U, C53A
B10: target 1 MT 5'PFS GUA 3'PFS ACU (mixed)
RNA 1: B1 RNA 1
RNA 2: B1 RNA 2 with A28U, C29A, G54U
B11: target 1 MT 5'PFS GAC 3'PFS CAC (mixed)
RNA 1: B1 RNA 1
RNA 2: B1 RNA 2 with A52C, C53A, G54C
B12: target 1 MT 5'PFS UCC 3'PFS UGA (mixed)
RNA 1: B1 RNA 1
RNA 2: B1 RNA 2 with G27U, A28C, A52U, C53G, G54A
B13: target 1 MT 5'PFS GAC 3'PFS CAA (mixed)
RNA 1: B1 RNA 1
RNA 2: B1 RNA 2 with A52C, C53A, G54A
B14: target 1 MT 5'PFS GUA 3'PFS ACC (mixed)
RNA 1: B1 RNA 1
RNA 2: B1 RNA 2 with A28U, C29A, G54C
B15: target 1 MT 5'PFS CCU 3'PFS UCA (mixed)
RNA 1: B1 RNA 1
RNA 2: B1 RNA 2 with G27C, A28C, C29U, A52U, G54A
B16: target 1 A18C,C22A (mixed)
RNA 1: B1 RNA 1
RNA 2: B1 RNA 2 with A28U, C29A, C30A, A34C, A52C
B17: target 1 MT 5'PFS CAC 3'PFS CAA (mixed)
RNA 1: B1 RNA 1
RNA 2: B1 RNA 2 with G27C, A52C, C53A, G54A
B18: target 1 MT 5'PFS GAC 3'PFS CAU (mixed)
RNA 1: B1 RNA 1
RNA 2: B1 RNA 2 with A52C, C53A, G54U

Substitutions are numbered along the chain they refer to. In names and notes the source's numbering stands.

By Kd is commonly meant the equilibrium constant for the complex coming apart.

The target in this data set is T1, EsCas13d, nuclease-dead. Put plainly: crRNA (strand 1, pre-loaded); Mg2+; 40 mM Tris-HCl pH 7.5, 150 mM NaCl, 6 mM MgCl2, 1 mM DTT, 0.1% Tween-20, 0.2 mg/ml BSA; 25 C; 10 min per concentration, then washed. Conditions: tags: His6-TwinStrep-SUMO cleaved; N-terminal SNAP kept (SNAP-Surface 488); label: 3' end held by stalled T7 RNA polymerase.
Molecule B1 yielded a Kd of 16.7 ± 3.95 nM.
The same measure for B2: 11 ± 0.92 nM; for B3: roughly 12.5 nM.
As for B4, the dissociation constant Kd worked out at 7.35 ± 3.35 nM.
The same measure for B5: 17.6 ± 1.45 nM; for B6: roughly 23.5 nM; for B7: 34.5 ± 13.5 nM.
Molecule B8 displayed a Kd of 21.4 ± 4.8 nM.
Next, B9: 12.9 ± 2.25 nM.
Next, B10: 10.6 ± 0.75 nM.
Next, B11: 61 ± 21.5 nM; B12: roughly 29 nM; B13: 25.5 ± 8.5 nM.
Take B14: the dissociation constant Kd was 7.95 ± 0.8 nM.
The same measure for B15: 26.5 ± 10.5 nM; for B16: 67 ± 13 nM; for B17: 12 ± 6 nM.
With B18, binding was characterised by a dissociation constant (Kd) of 21.5 ± 8 nM.
